From the supplement of paper PMC10471632, “Protein engineering and iterative multimodule optimization for vitamin B6 production in Escherichia coli” (Nature Communications, 2023)
± gives the standard deviation of the averaged measurements.

B1: library; numbered along this chain (parent)
chain: MAELLLGVNIDHIATLRNARGTAYPDPVQAAFIAEQAGADGITVHLREDRRHITDRDVRILRQTLDTRMNLEMAVTEEMLAIAVETKPHFCCLVPEKRQEVTTEGGLDVAGQRDKMRDACKRLADAGIQVSLFIDADEEQIKAAAEVGAPFIEIHTGCYADAKTDAEQAQELARIAKAATFAASLGLKVNAGHGLTYHNVKAIAAIPEMHELNIGHAIIGRAVMTGLKDAVAEMKRLMLEARG

Variants of: B1
Experiment: pyridoxine titer in culture supernatant of strain expressing the PdxJ variant; higher = more PN produced (higher in vivo pathway activity of the PdxJ variant)
Conditions: host strain: E. coli LL006; 48 h; temperature: 37 °C; FM1.4
Procedure: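 Rosetta-designed single to quadruple mutants of E. coli PdxJ (PNP synthase) were expressed from pRSFDuet-1 in the engineered chassis E. coli LL006 (MG1655 ΔpdxH::pdxST, pta::Eme_pdxP). Strains were grown in 24 deep-well plates in 2 mL FM1.4 glycerol medium at 37 °C and 800 rpm for 48 h. Extracellular pyridoxine (PN) titer was quantified by HPLC with fluorescence detection; two biological replicates, with the WT pdxJ strain (LL137, about 0.5 mg/L) as control.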

In order of falling pyridoxine titer:
1. MAELLLGVNIDHIATLRNARGTTYPDPVQAAFIAEQAGADGITVHLREDRRHITDRDVRILRQTLDTRMNLEMAVTEEMLAIAVETKPHFCCLVPEKRQEVTTEGGLDVAGQRDKMRDACKRLADAGIQVSLFIDADEEQIKAAAEVGAPFIEIHTGCYADAKTDAEQAQELARIAKAATFAASLGLKVNAGHCLMYHNVKAIAAIPEMHELNIGHAIGGRAVMTGLKDAVAEMKRLMLEARG [A23T G194C T196M I219G]  6.96 ± 5.8 mg/L
2. MAELLLGVNIDHIATLRNARGTAYPDPVQAAFIAEQAGADGITVHLREDRRHITDRDVRILRQTLDTRMNLEMAVTEEMLAIAVETKPHFCCLVPEKRQEVTTEGGLDVAGQRDKMRDACKRLADAGIQVSLFIDADEEQIKAAAEVGAPFIEIITGCYADAKTDAEQAQELARIAKAATFAASLGLKVNAGHGLTYHNVKAIAAIPEMHELNIGHAIIGRAVMTGLKDAVAEMKRLMLEARG [H155I]  3.05 ± 1.1 mg/L
3. MAELLLGVNIDHIATLRNARGVTYPDPVQAAFIAEQAGADGITVHLREDRRHITDRDVRILRQTLDTRMNLEMAVTEEMLAIAVETKPHFCCLVPEKRQEVTTEGGLDVAGQRDKMRDACKRLADAGIQVSLFIDADEEQIKAAAEVGAPFIEIHTGCYADAKTDAEQAQELARIAKAATFAASLGLKVNAGHGLTYHNVKAIAAIPEMHELNIGHAIIGRAVMTGLKDAVAEMKRLMLEARG [T22V A23T]  1.74 ± 0.23 mg/L
4. MAELLLGVNIDHIATLRNARGTTYPDPVQAAFIAEQAGADGITIHLREDRRHITDRDVRILRQTLDTRMNLEMAVTEEMLAIAVETKPHFCCLVPEKRQEVTTEGGLDVAGQRDKMRDACKRLADAGIQVSLFIDADEEQIKAAAEVGAPFIEIHTGCYADAKTDAEQAQELARIAKAATFAASLGLKVNAGHGLVYHNVKAIAAIPEMHEINIGHAIIGRAVMTGLKDAVAEMKRLMLEARG [A23T V44I T196V L212I]  1.53 ± 0.17 mg/L
5. MAELLLGVNIDMIITLRNARGTAYPDPVQAAFIAEQAGADGITVHLREDRRHITDRDVRILRQTLDTRMNLEMAVTEEMLAIAVETKPHFCCLVPEKRQEVTTEGGLDVAGQRDKMRDACKRLADAGIQVSLFIDADEEQIKAAAEVGAPFIEIHTGCYADAKTDAEQAQELARIAKAATFAASLGLKVNAGHGLCYHNVKAIAAIPEMHELNIGHAIIGRAVMTGLKDAVAEMKRLMLEARG [H12M A14I T196C]  1.49 ± 0.28 mg/L
6. MAELLLGVNLDHIATLRNARGTAYPDPVQAAFIAEQAGADGITVHLREDRRHITDRDVRILRQTLDTRMNLEMAVTEEMLAIAVETKPHFCCLVPEKRQEVTTEGGLDVAGQRDKMRDACKRLADAGIQVSLFIDADEEQIKAAAEVGAPFIEIHTGCYADAKTDAEQAQELARIAKAATFAASLGLKVNAGHCLTYHNVKAIAAIPEMHELNIGHALIGRAVMTGLKDAVAEMKRLMLEARG [I10L G194C I218L]  1.45 ± 0.3 mg/L
7. MAELLLGVNIDHIATLRNQRGTAYPDPVQAAFIAEQAGADGITVHLREDRRHITDRDVRILRQTLDTRMNLEMAVTEEMLAIAVETKPHFCCLVPEKRQEVTTEGGLDVAGQRDKMRDACKRLADAGIQVSLFIDADEEQIKAAAEVGAPFIEIHTGCYADAKTDAEQAQELARIAKAATFAASLGLKVNAGHGLTYHNVKAIAAIPEMHELNIGHAIIGRAVMTGLKDAVAEMKRLMLEARG [A19Q]  1.02 ± 0.045 mg/L
8. MAELLLGVNLDHIATLRNARGTAYPDPVQAAFIAEQAGADGITVHLREDRRHITDRDVRILRQTLDTRMNLEMAVTEEMLAIAVETKPHFCCLVPEKRQELTTTGGLDVAGQRDKMRDACKRLADAGIQVSLFIDADEEQIKAAAEVGAPFIEIHTGCYADAKTDAEQAQELARIAKAATFAASLGLKVNAGHGLTYHNVKAIAAIPEMHELNIGHAICGRAVMTGLKDAVAEMKRLMLEARG [I10L V101L E104T I219C]  0.874 ± 0.68 mg/L
9. MAELLLGVNIDHIATLRNARGTAYPDPVQAAFIAEQAGADGITVHLREDRRHITDRDVRILRQTLDTRMNLEMAVTEEMLAIAVETKPHFCCLVPEKRQEVTTEGGLDVAGQRDKMRDACKRLADAGIQVSLFIDADEEQIKAAAEVGAPFIEIHTGCYADAKTDAEQAQELARIAKAATFAASLGLKVNAGHGLCYHNVKAIAAIPEMHEINIGHAIIGRAVMTGLKDAVAEMKRLMLEARG [T196C L212I]  0.66 ± 0.014 mg/L
10. MAELLLGVNLDHIATLRNARGTTYPDPVQAAFIAEQAGADGITVHLREDRRHITDRDVRILRQTLDTRMNLEMAVTEEMLAIAVETKPHFCCLVPEKRQEVTTTGGLDVAGQRDKMRDACKRLADAGIQVSLFIDADEEQIKAAAEVGAPFIEIHTGCYADAKTDAEQAQELARIAKAATFAASLGLKVNAGHQLTYHNVKAIAAIPEMHELNIGHAIIGRAVMTGLKDAVAEMKRLMLEARG [I10L A23T E104T G194Q]  0.545 ± 0.21 mg/L
11. MAELLLGVNIDHIAILRNARGTTYPDPVQAAFIAEQAGADGITVHLREDRRHITDRDVRILRQTLDTRMNLEMAVTEEMLAIAVETKPHFCCLVPEKRQEVTTEGGLDVAGQRDKMRDACKRLADAGIQVSLFIDADEEQIKAAAEVGAPFIEIHTGCYADAKTDAEQAQELARIAKAATFAASLGLKVNAGHGLTYHNVKAIAAIPEMHELNIGHAIIGRAVMTGLKDAVAEMKRLMLEARG [T15I A23T]  0.3 ± 0.014 mg/L
12. MAELLLGVNLDHIATLRNARGTTYPDPVQAAFIAEQAGADGITVHLREDRRHITDRDVRILRQTLDTRMNLEMAVTEEMLAIAVETKPHFCCLVPEKRQELTTTGGLDVAGQRDKMRDACKRLADAGIQVSLFIDADEEQIKAAAEVGAPFIEIHTGCYADAKTDAEQAQELARIAKAATFAASLGLKVNAGHGLTYHNVKAIAAIPEMHELNIGHAIIGRAVMTGLKDAVAEMKRLMLEARG [I10L A23T V101L E104T]  0.257 ± 0.014 mg/L
